Laboratory results taken from WO2007124463A1 (dated 2007).

T1: mouse GLP-1 receptor (mouse, UniProt O35659 22-463)
T1 sequence (looked up): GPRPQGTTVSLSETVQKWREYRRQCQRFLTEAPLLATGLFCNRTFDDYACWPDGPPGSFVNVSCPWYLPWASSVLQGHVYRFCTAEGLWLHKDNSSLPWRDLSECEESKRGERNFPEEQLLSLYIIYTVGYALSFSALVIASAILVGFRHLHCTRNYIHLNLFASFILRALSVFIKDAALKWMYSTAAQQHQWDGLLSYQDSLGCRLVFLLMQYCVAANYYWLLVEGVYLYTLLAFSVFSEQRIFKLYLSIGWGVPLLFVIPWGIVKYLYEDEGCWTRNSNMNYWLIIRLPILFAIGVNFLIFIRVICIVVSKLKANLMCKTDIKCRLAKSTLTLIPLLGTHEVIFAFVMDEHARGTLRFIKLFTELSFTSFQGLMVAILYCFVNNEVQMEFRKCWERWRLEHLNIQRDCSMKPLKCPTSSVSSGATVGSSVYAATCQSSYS


Legend:
glucagon [1] = target: T2, glucagon (UniProt P01275 53-81); assay: cell-based or functional assay
T2 sequence (P01275 53-81): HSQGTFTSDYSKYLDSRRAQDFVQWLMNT

glucagon [2] = target: T2, glucagon; assay: inhibition of 200 pM 125I-glucagon binding to crude membranes of cells expressing the glucagon receptor, dose range of AG159
human GLP-1 receptor [3] = target: T3, human GLP-1 receptor (human, UniProt P43220 24-463); assay: cell-based or functional assay
mouse GLP-1 receptor = target: T1, mouse GLP-1 receptor; assay: cell-based or functional assay
human GLP-1 receptor [4] = target: T3, human GLP-1 receptor; assay: displacement of 0.2 nM 125I-GLP-1 from membranes of CHOK1 cells expressing human GLP-1 receptor

| Binder | IC50 of neutralization of glucagon stimulated luciferase reporter activity (cells expressing recombinant glucagon receptor, 0.1 nM glucagon) (glucagon [1]) | IC50 (glucagon [2]) | EC50 of activation, GLP-1R luciferase reporter assay (human GLP-1 receptor [3]) | EC50 of activation, GLP-1R luciferase reporter assay (mouse GLP-1 receptor) | IC50 (human GLP-1 receptor [4]) |
| --- | --- | --- | --- | --- | --- |
| AG159 fully human anti-glucagon monoclonal antibody (antibody, V domains shown, not shown: a dimerising Fc or GST, also called AGl 59; AG159 Ab) VH: QVQLVESGGGVVQPGRSLRLSCAASGFTFSSYGMHWVRQAPGKGLEWVAVIYYDGSNKYYADSVKGRFTISRDITKNTLYLQMNSLRAEDTAVYYCARASRGFDYWGQGTLVTVSS VL: EIVLTQSPATLSLSPGDRATLSCRASQSVSSYLAWYQQKPGQAPRLLISDASNRATGIPARFSGSGSGTDFTLTISSLEPEDFAVYYCQQRSNWITFGQGTRLEIKR | 4 nM | 0.2 nM | – | – | – |
| GLP(A2G)-AG159LC:AG159 IgG2 (other, GLP-1 peptide-antibody fusion; also called GLP(A26)-AG159LC:AG159 IgG2; not shown: which one cannot be told, Tab) light: not shown heavy: QVQLVESGGGVVQPGRSLRLSCAASGFTFSSYGMHWVRQAPGKGLEWVAVIYYDGSNKYYADSVKGRFTISRDITKNTLYLQMNSLRAEDTAVYYCARASRGFDYWGQGTLVTVSS | – | – | 0.1 nM | 5 nM | 5 to 10 nM |
| AG159LC:GLP(A2G)-AG159 IgG2 (other, GLP-1 peptide-antibody fusion; It was produced in CHO cells; also called GLP(A2G)-AG159 HC; AG159LC:GLP-1-AG159 IgG2; not shown: human IgG2 heavy chain constant region) light: not shown heavy: HGEGTFTSDVSSYLEGQAAKEFIAWLVKGRGGSGSATGGSGSTASSGSGSATGGGGGGQVQLVESGGGVVQPGRSLRLSCAASGFTFSSYGMHWVRQAPGKGLEWVAVIYYDGSNKYYADSVKGRFTISRDITKNTLYLQMNSLRAEDTAVYYCARASRGFDYWGQGTLVTVSS | – | – | 0.1 nM | 5 nM | 5 to 10 nM |
